# Measured values as given in publication PMC4782060, “Mechanism of intermediate filament recognition by plakin repeat domains revealed by envoplakin targeting of vimentin” (Nature Communications, 2016).
# T1: wild-type human envoplakin plakin repeat domain (PRD), residues Asp1822-Ala2014 (human, UniProt Q92817 1822-2014)
# T1 construct: envoplakin, human, plakin repeat domain, residues Asp1822-Ala2014; vector pProEX-HTC; also called envoplakin PRD; WT; source: E. coli BL21(DE3), purified (HisTrap, TEV cleavage, S75 size exclusion)
# T1 sequence (looked up): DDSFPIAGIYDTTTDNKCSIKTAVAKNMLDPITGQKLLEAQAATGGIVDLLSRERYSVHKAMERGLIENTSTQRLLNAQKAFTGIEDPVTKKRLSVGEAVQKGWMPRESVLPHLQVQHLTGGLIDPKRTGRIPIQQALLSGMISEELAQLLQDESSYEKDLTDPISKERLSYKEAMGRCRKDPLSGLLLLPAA
# T2: envoplakin PRD K2002E (control mutation) (human, UniProt Q92817 1822-2014, K2002E)
# T2 construct: envoplakin, human, plakin repeat domain, residues Asp1822-Ala2014, mutant K2002E; 15N-labelled for NMR; source: E. coli BL21(DE3), purified (HisTrap, TEV cleavage, S75 size exclusion)
# T2 sequence (looked up): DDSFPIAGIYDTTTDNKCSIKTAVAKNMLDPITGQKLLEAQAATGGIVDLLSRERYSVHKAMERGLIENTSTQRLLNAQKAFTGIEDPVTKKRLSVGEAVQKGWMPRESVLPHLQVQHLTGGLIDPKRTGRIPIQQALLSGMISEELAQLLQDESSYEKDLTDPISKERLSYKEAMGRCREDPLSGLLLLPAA
# B1: envoplakin PRD K1847E (control mutation) (domain or fragment, human, UniProt Q92817 1822-2014, looked up)
# chain: DDSFPIAGIYDTTTDNKCSIKTAVAENMLDPITGQKLLEAQAATGGIVDLLSRERYSVHKAMERGLIENTSTQRLLNAQKAFTGIEDPVTKKRLSVGEAVQKGWMPRESVLPHLQVQHLTGGLIDPKRTGRIPIQQALLSGMISEELAQLLQDESSYEKDLTDPISKERLSYKEAMGRCRKDPLSGLLLLPAA
# notes: envoplakin, human, plakin repeat domain, residues Asp1822-Ala2014, mutant K1847E; 15N-labelled for NMR; source: E. coli BL21(DE3), purified (HisTrap, TEV cleavage, S75 size exclusion)
# B2: envoplakin PRD K1901E (domain or fragment, human, UniProt Q92817 1822-2014, looked up)
# chain: DDSFPIAGIYDTTTDNKCSIKTAVAKNMLDPITGQKLLEAQAATGGIVDLLSRERYSVHKAMERGLIENTSTQRLLNAQEAFTGIEDPVTKKRLSVGEAVQKGWMPRESVLPHLQVQHLTGGLIDPKRTGRIPIQQALLSGMISEELAQLLQDESSYEKDLTDPISKERLSYKEAMGRCRKDPLSGLLLLPAA
# notes: envoplakin, human, plakin repeat domain, residues Asp1822-Ala2014, mutant K1901E; 15N-labelled for NMR; source: E. coli BL21(DE3), purified (HisTrap, TEV cleavage, S75 size exclusion)
# B3: envoplakin PRD R1914E (domain or fragment, human, UniProt Q92817 1822-2014, looked up)
# chain: DDSFPIAGIYDTTTDNKCSIKTAVAKNMLDPITGQKLLEAQAATGGIVDLLSRERYSVHKAMERGLIENTSTQRLLNAQKAFTGIEDPVTKKELSVGEAVQKGWMPRESVLPHLQVQHLTGGLIDPKRTGRIPIQQALLSGMISEELAQLLQDESSYEKDLTDPISKERLSYKEAMGRCRKDPLSGLLLLPAA
# notes: envoplakin, human, plakin repeat domain, residues Asp1822-Ala2014, mutant R1914E; 15N-labelled for NMR; also called K1914E (as printed once in the text); source: E. coli BL21(DE3), purified (HisTrap, TEV cleavage, S75 size exclusion)
# Experiments:
# Conditions in all cases: both partners purified
# [1] = target: T3, full-length human vimentin (residues Met1-Glu466) (human, UniProt P08670 1-466); test: NMR titration; unlabelled full-length vimentin (10, 50, 100, 200 μM) added to 100 μM 15N-labelled wild-type or mutant envoplakin PRD; 1H,15N HSQC peak intensities; 20 mM Tris-Cl, pH 7, 1 mM DTT, no salt, 298 K
# T3 construct: vimentin, human, residues Met1-Glu466; Vector pET21a+; also called vimentin^FL; full-length vimentin
# [2] = target: T1, wild-type human envoplakin plakin …; test: SPR; His-tagged vimentin^ROD (wild type or mutant) immobilised on nickel-coated chips, Biacore 3000; envoplakin PRD 0-100 μM flowed over; 150 mM NaCl, 10 mM Hepes, 3 mM EDTA, 0.005% Surfactant P20, pH 7.4
# envoplakin PRD K1901E = target: B2; test: as above
# [3] = target: T2, envoplakin PRD K2002E (control mutation); test: as above
# [4] = target: B1; test: as above
# envoplakin PRD R1914E = target: B3; test: as above
# T3 sequence (P08670 whole entry, the tested form may be a part): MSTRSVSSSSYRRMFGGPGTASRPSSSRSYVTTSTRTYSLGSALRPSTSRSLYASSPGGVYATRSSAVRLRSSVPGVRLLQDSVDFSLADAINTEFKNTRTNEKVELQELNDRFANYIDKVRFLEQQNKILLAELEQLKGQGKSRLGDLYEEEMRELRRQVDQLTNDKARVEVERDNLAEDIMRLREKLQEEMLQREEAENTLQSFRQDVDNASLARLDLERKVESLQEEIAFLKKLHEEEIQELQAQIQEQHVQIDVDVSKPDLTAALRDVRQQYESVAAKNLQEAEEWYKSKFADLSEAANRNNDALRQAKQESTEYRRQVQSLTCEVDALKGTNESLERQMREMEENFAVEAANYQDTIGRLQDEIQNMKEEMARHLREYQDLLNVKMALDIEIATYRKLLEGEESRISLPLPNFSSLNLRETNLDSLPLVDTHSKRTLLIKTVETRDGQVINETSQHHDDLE
binding result [1],Kd [2] [µM],Binder,other results
binds,,"envoplakin PRD R1895E (domain or fragment, human, UniProt Q92817 1822-2014, looked up, envoplakin, human, plakin repeat domain, residues Asp1822-Ala2014, mutant R1895E; 15N-labelled for NMR; source: E. coli BL21(DE3), purified (HisTrap, TEV cleavage, S75 size exclusion)) DDSFPIAGIYDTTTDNKCSIKTAVAKNMLDPITGQKLLEAQAATGGIVDLLSRERYSVHKAMERGLIENTSTQELLNAQKAFTGIEDPVTKKRLSVGEAVQKGWMPRESVLPHLQVQHLTGGLIDPKRTGRIPIQQALLSGMISEELAQLLQDESSYEKDLTDPISKERLSYKEAMGRCRKDPLSGLLLLPAA",
binds,,"envoplakin PRD R1952A (domain or fragment, human, UniProt Q92817 1822-2014, looked up, envoplakin, human, plakin repeat domain, residues Asp1822-Ala2014, mutant R1952A; 15N-labelled for NMR; source: E. coli BL21(DE3), purified (HisTrap, TEV cleavage, S75 size exclusion)) DDSFPIAGIYDTTTDNKCSIKTAVAKNMLDPITGQKLLEAQAATGGIVDLLSRERYSVHKAMERGLIENTSTQRLLNAQKAFTGIEDPVTKKRLSVGEAVQKGWMPRESVLPHLQVQHLTGGLIDPKRTGAIPIQQALLSGMISEELAQLLQDESSYEKDLTDPISKERLSYKEAMGRCRKDPLSGLLLLPAA",
binds,,"envoplakin PRD K1988E (control mutation) (domain or fragment, human, UniProt Q92817 1822-2014, looked up, envoplakin, human, plakin repeat domain, residues Asp1822-Ala2014, mutant K1988E; 15N-labelled for NMR; source: E. coli BL21(DE3), purified (HisTrap, TEV cleavage, S75 size exclusion)) DDSFPIAGIYDTTTDNKCSIKTAVAKNMLDPITGQKLLEAQAATGGIVDLLSRERYSVHKAMERGLIENTSTQRLLNAQKAFTGIEDPVTKKRLSVGEAVQKGWMPRESVLPHLQVQHLTGGLIDPKRTGRIPIQQALLSGMISEELAQLLQDESSYEKDLTDPISEERLSYKEAMGRCRKDPLSGLLLLPAA",
binds,,"envoplakin PRD R1990E (control mutation) (domain or fragment, human, UniProt Q92817 1822-2014, looked up, envoplakin, human, plakin repeat domain, residues Asp1822-Ala2014, mutant R1990E; 15N-labelled for NMR; source: E. coli BL21(DE3), purified (HisTrap, TEV cleavage, S75 size exclusion)) DDSFPIAGIYDTTTDNKCSIKTAVAKNMLDPITGQKLLEAQAATGGIVDLLSRERYSVHKAMERGLIENTSTQRLLNAQKAFTGIEDPVTKKRLSVGEAVQKGWMPRESVLPHLQVQHLTGGLIDPKRTGRIPIQQALLSGMISEELAQLLQDESSYEKDLTDPISKEELSYKEAMGRCRKDPLSGLLLLPAA",
binds,,B1,
binds,,B2,
binds,,"envoplakin PRD K1994E (domain or fragment, human, UniProt Q92817 1822-2014, looked up, envoplakin, human, plakin repeat domain, residues Asp1822-Ala2014, mutant K1994E; 15N-labelled for NMR; source: E. coli BL21(DE3), purified (HisTrap, TEV cleavage, S75 size exclusion)) DDSFPIAGIYDTTTDNKCSIKTAVAKNMLDPITGQKLLEAQAATGGIVDLLSRERYSVHKAMERGLIENTSTQRLLNAQKAFTGIEDPVTKKRLSVGEAVQKGWMPRESVLPHLQVQHLTGGLIDPKRTGRIPIQQALLSGMISEELAQLLQDESSYEKDLTDPISKERLSYEEAMGRCRKDPLSGLLLLPAA",
binds,,B3,
,106 ± 45.6,"vimentin^ROD D112K (domain or fragment, vimentin, human, rod residues 99-249, mutant D112K) not shown",
,19.1 ± 1.3,"vimentin^ROD construct, vimentin residues 99-249 (coils 1A and 1B of the central rod domain) (domain or fragment, vimentin, human, rod residues 99-249, coils 1A and 1B; Vector pET21a+; His tag retained for SPR; also called WT; envoplakin^ROD (as printed once in the text)) not shown",Kd (envoplakin PRD K1901E): 69.3 ± 10.6 µM; Kd [3]: 14.5 ± 0.4 µM; Kd [4]: 26.5 ± 2 µM; Kd (envoplakin PRD R1914E): 132 ± 34.7 µM
,48.4 ± 5.5,"vimentin^ROD D119K (domain or fragment, vimentin, human, rod residues 99-249, mutant D119K) not shown",
,1500 ± 139,"vimentin^ROD double mutant D112K/D119K (domain or fragment, vimentin, human, rod residues 99-249, double mutant D112K/D119K) not shown",
